Experimental data taken from publication PMC6021111, “Murine leukemia virus p12 tethers the capsid-containing pre-integration complex to chromatin by binding directly to host nucleosomes in mitosis” (PLoS Pathogens, 2018).

B1: Clathrin light chain A: P09496 (protein)
chain: MAELDPFGAPAGAPGGPALGNGVAGAGEEDPAAAFLAQQESEIAGIENDEAFAILDGGAPGPQPHGEPPGGPDAVDGVMNGEYYQESNGPTDSYAAISQVDRLQSEPESIRKWREEQMERLEALDANSRKQEAEWKEKAIKELEEWYARQDEQLQKTKANNRVADEAFYKQPFADVIGYVTNINHPCYSLEQAAEEAFVNDIDESSPGTEWERVARLCDFNPKSSKQAKDVSRMRSVLISLKQAPLVH
B2: Clathrin interactor 1: Q14677 (protein)
chain: MLNMWKVRELVDKATNVVMNYSEIESKVREATNDDPWGPSGQLMGEIAKATFMYEQFPELMNMLWSRMLKDNKKNWRRVYKSLLLLAYLIRNGSERVVTSAREHIYDLRSLENYHFVDEHGKDQGINIRQKVKELVEFAQDDDRLREERKKAKKNKDKYVGVSSDSVGGFRYSERYDPEPKSKWDEEWDKNKSAFPFSDKLGELSDKIGSTIDDTISKFRRKDREDSPERCSDSDEEKKARRGRSPKGEFKDEEETVTTKHIHITQATETTTTRHKRTANPSKTIDLGAAAHYTGDKASPDQNASTHTPQSSVKTSVPSSKSSGDLVDLFDGTSQSTGGSADLFGGFADFGSAAASGSFPSQVTATSGNGDFGDWSAFNQAPSGPVASSGEFFGSASQPAVELVSGSQSALGPPPAASNSSDLFDLMGSSQATMTSSQSMNFSMMSTNTVGLGLPMSRSQNTDMVQKSVSKTLPSTWSDPSVNISLDNLLPGMQPSKPQQPSLNTMIQQQNMQQPMNVMTQSFGAVNLSSPSNMLPVRPQTNALIGGPMPMSMPNVMTGTMGMAPLGNTPMMNQSMMGMNMNIGMSAAGMGLTGTMGMGMPNIAMTSGTVQPKQDAFANFANFSK

Test system: GST-p12_WT
Assay: SILAC-MS of proteins enriched with GST-p12_WT relative to GST
Assay type: binding, Mo-MLV
Conditions: for SDs from the mean: log2(GST-p12_WT, Heavy/GST, Light)
Text: To test whether GST-p12 was acting like the p12 region of Gag, we used a global proteomic approach based on stable isotope labelling by amino acids in cell culture (SILAC)-mass spectrometry (MS) to look for host proteins that interact with GST-p12 [35, 36]. A schematic diagram of the workflow is illustrated in Fig 4A. Briefly, GST, GST-p12_mut14 and GST-p12_WT were transiently-expressed in 293T cells cultured in light (R0/K0), medium (R6/K4) and heavy (R10/K8) SILAC media, respectively. Next, lysates of nocodazole treated transfected cells were prepared, normalised and used for parallel pull-down assays with glutathione-sepharose beads. The eluates from the beads were then pooled in a 1:1:1 ratio and subjected to LC-MS/MS analysis. The experiment was performed using biological replicates to test reproducibility of the mass-spec hits. The pull-down assays for this experiment were performed using mitotic cell lysates to facilitate identification of any potential chromatin interactions that were previously missed.
After removal of obvious contaminants (e.g. keratin) and non-quantified hits, 948 and 879 proteins were identified in replicates 1 and 2 (R1 and R2) of the experiment respectively (the false discovery rate (FDR) was set at 5%). To select proteins enriched in the heavy-labelled (H) GST-p12_WT sample relative to the light-labelled (L) GST sample, we compared the log2(H/L) silac ratios of the mass-spectrometry hits. When plotted as a frequency distribution, the log2(H/L) ratios of each replicate fitted well to a normal distribution curve (R^2 ≥ 0.98), allowing the mean and standard deviation to be accurately estimated (Fig 4B). In this experiment, contaminants/non-specifically bound cellular proteins were assumed to cluster around the mean of the distribution. […] Twenty one such proteins were identified in R1 and 22 identified in R2 (Fig 4B Venn diagram). […] These proteins were then ranked based on normalised abundance in the group. In mass-spectrometry analysis, larger proteins are in general assigned higher scores. Therefore, to control for protein size, we divided the number of peptide spectral matches identified for each protein with its length and then normalised the values across the group (Fig 4C and 4D). When ranked this way, the clathrin heavy chain (CLTC), clathrin interactor 1 (CLINT1) and NEDD4-like E3 ubiquitin ligase (WWP2) were identified as the top three hits. […] The function of clathrin in MLV infection is unclear. […] Thus, clathrin binding may be relevant to the early stages of MLV replication and should be investigated further.
For SILAC-MS experiments, 293T cells were grown is media containing light (R0K0, ^12C-Arginine and ^12C-Lysine), medium (R6K4, ^13C-Arginine and Lysine-4,4,5,5-d4) or heavy (R10K8, ^13C+^15N-Arginine and ^13C+^15N-Lysine) versions of L-Arginine and L-Lysine amino acids (Pierce) for a minimum of 6 doublings before transient expression of GST-p12 proteins. After performing the glutathione-sepharose pull-down assays equivalent volumes of the beads eluates were pooled and submitted to the Bristol University Proteomics Facility for RP nano-LC-MS/MS analysis. This analysis was performed on an LTQ-Orbitrap Velos mass spectrometer in line with a Dionex Ultimate 3000 nanoHPLC system as described in [53].
Supplementary file ppat.1007117.s005.xlsx: S1 Table Results from the first SILAC-MS analysis. GST, Mo-MLV GST-p12_mut14 or GST-p12_WT were transiently-expressed in 293T cells cultured in light (R0/K0), medium (R6/K4) and heavy (R10/K8) SILAC media, respectively. Mitotic cell lysates were subsequently used for glutathione-sepharose bead pull-down assays. Bead eluates were pooled in a 1:1:1 ratio and then analysed by LC-MS/MS. […] (XLSX) Click here for additional data file.

Molecule | Normalised (PSMs/Length) (Replicate 1) | PSMs (Replicate 1) | PSMs/Length (Replicate 1) | Normalised (PSMs/Length) (Replicate 2) | PSMs (Replicate 2) | PSMs/Length (Replicate 2) | SDs from the mean (Replicate 2)
B1 | 7.412 | 2 | 0.008065 | 7.2207 | 2 | 0.008065 | 7.68
B2 | 26.4693 | 18 | 0.0288 | 22.9214 | 16 | 0.0256 | 13.1531
